In publication PMC5025763, “Bach2–Batf interactions control Th2-type immune response by regulating the IL-4 amplification loop” (Nature Communications, 2016):

Target: T1, Flag-tagged Bach2 protein (mouse, UniProt P97303 1-839)
T1 construct: Bach2, mouse (murine Bach2 cDNA is named in the methods of the luciferase assay); The species is stated only for the cDNA cloned into pCMV-Myc; also called WT Bach2 protein; BTB and CNC homology 1, basic leucine zipper transcription factor 2; source: cell-free protein synthesis
Experiment: AlphaScreen or HTRF; Flag-tagged Bach2 mixed with biotinylated transcription factors, 26 °C for 1 h; then protein A-conjugated acceptor beads, streptavidin-coated donor beads and anti-Flag M2 antibody, 26 °C for 1 h; proteins from cell-free synthesis; intensities relative to DHFR
Settings: partners not purified

T1 sequence (P97303 whole entry): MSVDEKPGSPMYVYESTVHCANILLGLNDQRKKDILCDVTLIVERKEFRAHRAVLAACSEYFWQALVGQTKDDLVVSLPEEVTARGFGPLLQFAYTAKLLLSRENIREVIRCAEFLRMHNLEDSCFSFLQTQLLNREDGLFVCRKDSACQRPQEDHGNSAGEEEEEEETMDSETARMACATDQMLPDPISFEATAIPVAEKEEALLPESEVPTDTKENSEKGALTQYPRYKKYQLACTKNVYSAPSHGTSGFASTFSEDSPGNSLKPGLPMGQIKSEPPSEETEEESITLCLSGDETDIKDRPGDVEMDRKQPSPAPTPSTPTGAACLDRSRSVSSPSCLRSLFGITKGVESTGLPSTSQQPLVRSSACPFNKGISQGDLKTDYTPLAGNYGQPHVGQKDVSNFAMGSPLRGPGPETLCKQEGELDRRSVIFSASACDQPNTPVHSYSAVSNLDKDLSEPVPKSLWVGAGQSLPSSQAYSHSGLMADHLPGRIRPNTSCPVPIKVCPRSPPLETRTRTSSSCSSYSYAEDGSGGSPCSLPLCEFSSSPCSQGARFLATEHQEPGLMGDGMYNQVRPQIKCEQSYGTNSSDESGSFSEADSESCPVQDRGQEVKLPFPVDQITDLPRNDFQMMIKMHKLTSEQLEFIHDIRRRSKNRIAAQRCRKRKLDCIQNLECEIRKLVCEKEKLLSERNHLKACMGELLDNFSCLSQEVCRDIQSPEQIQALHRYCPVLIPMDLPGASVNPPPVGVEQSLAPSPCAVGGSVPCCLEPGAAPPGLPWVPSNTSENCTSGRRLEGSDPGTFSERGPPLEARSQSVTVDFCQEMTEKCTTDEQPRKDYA

B1: MafK (natural protein)
chain: not shown
notes: MafK (small Maf protein); Named only in the discussion as measured in the authors' AlphaScreen system
With B1 the “fold binding strength against the Batf–Bach2 interaction” value was roughly 20 fold.
